Experimental data: US20230416345A1 (NAVIGO PROTEINS, published 2023)

T1: human collagen type III (human, UniProt P02461 154-1221)
T1 construct: Bought; also called h Col III; type III collagen
T1 sequence (looked up): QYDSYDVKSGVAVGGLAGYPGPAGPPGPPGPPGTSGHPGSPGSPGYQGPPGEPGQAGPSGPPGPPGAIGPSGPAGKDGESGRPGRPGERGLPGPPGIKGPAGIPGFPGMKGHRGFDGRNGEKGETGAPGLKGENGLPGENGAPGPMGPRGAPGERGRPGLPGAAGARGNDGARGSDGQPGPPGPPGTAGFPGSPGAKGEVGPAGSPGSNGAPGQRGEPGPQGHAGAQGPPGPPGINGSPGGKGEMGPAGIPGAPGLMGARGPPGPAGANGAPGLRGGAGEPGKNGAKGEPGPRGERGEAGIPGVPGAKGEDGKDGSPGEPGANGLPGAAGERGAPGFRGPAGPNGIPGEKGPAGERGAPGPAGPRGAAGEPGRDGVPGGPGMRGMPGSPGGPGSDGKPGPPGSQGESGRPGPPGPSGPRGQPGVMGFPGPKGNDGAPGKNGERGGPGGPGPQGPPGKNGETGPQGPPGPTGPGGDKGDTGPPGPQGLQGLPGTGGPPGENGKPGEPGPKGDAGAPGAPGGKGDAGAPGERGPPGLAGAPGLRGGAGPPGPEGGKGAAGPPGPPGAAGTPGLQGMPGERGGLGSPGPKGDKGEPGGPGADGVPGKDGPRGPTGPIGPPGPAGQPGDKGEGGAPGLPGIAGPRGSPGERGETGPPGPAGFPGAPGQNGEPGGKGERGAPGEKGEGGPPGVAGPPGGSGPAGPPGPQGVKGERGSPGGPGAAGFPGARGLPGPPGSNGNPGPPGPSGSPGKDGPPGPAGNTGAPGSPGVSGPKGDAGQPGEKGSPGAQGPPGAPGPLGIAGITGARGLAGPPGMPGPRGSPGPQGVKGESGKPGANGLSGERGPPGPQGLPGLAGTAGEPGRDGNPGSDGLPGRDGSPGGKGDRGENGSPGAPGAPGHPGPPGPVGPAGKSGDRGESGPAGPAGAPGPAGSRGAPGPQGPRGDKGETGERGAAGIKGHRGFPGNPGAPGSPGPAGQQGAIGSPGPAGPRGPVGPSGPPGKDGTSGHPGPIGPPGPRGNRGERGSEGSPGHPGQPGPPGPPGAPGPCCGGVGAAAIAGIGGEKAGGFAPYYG


Tests used:
[1] = target: T2, 67B89 (domain of fibronectin) (UniProt P02751 1089-1540, limits assumed); assay: ELISA, 67B89 coated on the plate, A 450-600 nm
T2 construct: domain: EDB (67B89); Unrelated control protein; also called fibronectin domain EDB (67B89); extradomain B of fibronectin
Method: (§1) High binding plates (Greiner, 781061) were immobilized with 2.5 μg/ml recombinant human collagen type II (h Col II, Chondrex, CHX-20051), rabbit collagen type II (rbCol II, prepared from rabbit eyes), porcine collagen type II (p Col II, prepared from porcine eyes), human collagen type I, (h Col I, Sigma, C5483-1MG), human collagen type V (h Col V, Abcam, ab7537), human collagen type III (h Col Ill, Abcam, ab7535) and 67B89 (domain of fibronectin, produced in E. coli) respectively over night at 4° C. ELISA-plates were washed 3 times with PBST (PBS+ 0.1% Tween) and blocked with 3% BSA/0.5% Tween/PBS 2 h at RT. […] Plates were washed with PBST and incubated with biotinylated anti-StrepTag-ab (Antikörper-online, ABIN1573895) with a dilution of 1:10.000 for 1 h at rt. The binding was visualized with a-rabbit-IgG-HRP (Sigma, A9169) with a dilution of 1:10.000 and as substrate TMB Plus von KEM EN TEC Diagnostic, Kat-Nr. 4395.
(§2) Results. ELISA analysis clearly confirms the specific binding to type II collagen. […] No unspecific binding to type I collagen, type III collagen, type V collagen or to a domain of fibronectin (67B89) was detected (FIG. 2).

human collagen type I [2] = target: T3, human collagen type I (human, UniProt P02452 162-1218; P08123 80-1119); assay: ELISA, h Col I coated on the plate, A 450-600 nm
T3 construct: Bought; also called h Col I; type I collagen
Method: as §1, §2

human collagen type V [3] = target: T4, human collagen type V (human, UniProt P20908 559-1570; P05997 216-1229); assay: ELISA, h Col V coated on the plate, A 450-600 nm
T4 construct: Bought; also called h Col V; type V collagen
Method: as §1, §2

human collagen type III [4] = target: T1, human collagen type III; assay: ELISA, h Col III coated on the plate, A 450-600 nm
Method: as §1, §2

porcine collagen type II [5] = target: T5, porcine collagen type II (porcine); assay: ELISA, collagen coated on the plate, dilution series of the binder, detection via StrepTag, A 450-600 nm
T5 construct: Prepared in house from pig eyes; also called p Col II; porcine type II collagen
Method: as §1, §2

rabbit collagen type II = target: T6, rabbit collagen type II (rabbit); assay: as above
T6 construct: Prepared from rabbit eyes; also called rbCol II
Method: as §1, §2

human collagen type V [6] = target: T4, human collagen type V; assay: SPR (Biacore 3000)
Method: (§3) The purified proteins were immobilized on a CM-5 sensor chip (GE Healthcare) using NHS/EDC after PDEA activation resulting in 110-140 RU with a Biacore 3000 system (GE Healthcare). The chip was equilibrated with SPR running buffer (PBS 0.05% Tween pH 7.3). Upon binding, target analyte was accumulated on the surface increasing the refractive index. This change in the refractive index was measured in real time and plotted as response or resonance units versus time. The analytes were applied to the chip in serial dilutions with a flow rate of 30 μl/min. The association was performed for 120 seconds and the dissociation for 120 seconds. After each run, the chip surface was regenerated with 30 μl regeneration buffer (10 mM glycine pH 2.0) and equilibrated with running buffer.
(§4) Binding studies were carried out by the use of the BIAcore 3000 (GE Healthcare); data evaluation was operated via the BIAevaluation 3.0 software, provided by the manufacturer, using the Langmuir 1:1 model (RI=0). Evaluated dissociation constants (KD) were standardized against the immobilized protein and indicated. Shown is the change in refractive index measured in real time and plotted as response or resonance unit [RU] versus time [sec].

[7] = target: T2, 67B89 (domain of fibronectin); assay: SPR (Biacore 3000)
Method: as §3, §4

BSA [8] = target: T7, BSA (UniProt P02769 25-607); assay: SPR (Biacore 3000)
T7 construct: Control protein
Method: as §3, §4

porcine collagen type II [9] = target: T5, porcine collagen type II; assay: ELISA (KD determination by ELISA, Example 5)
human collagen type I [10] = target: T3, human collagen type I; assay: SPR (Biacore), response at steady state; concentration not shown
Method: as §3, §4

human collagen type III [11] = target: T1, human collagen type III; assay: as above
Method: as §3, §4

human collagen type V [12] = target: T4, human collagen type V; assay: as above
Method: as §3, §4

[13] = target: T2, 67B89 (domain of fibronectin); assay: as above
Method: as §3, §4

BSA [14] = target: T7, BSA; assay: as above
Method: as §3, §4

T3 sequence (P02452 162-1218, chain 1 of 2): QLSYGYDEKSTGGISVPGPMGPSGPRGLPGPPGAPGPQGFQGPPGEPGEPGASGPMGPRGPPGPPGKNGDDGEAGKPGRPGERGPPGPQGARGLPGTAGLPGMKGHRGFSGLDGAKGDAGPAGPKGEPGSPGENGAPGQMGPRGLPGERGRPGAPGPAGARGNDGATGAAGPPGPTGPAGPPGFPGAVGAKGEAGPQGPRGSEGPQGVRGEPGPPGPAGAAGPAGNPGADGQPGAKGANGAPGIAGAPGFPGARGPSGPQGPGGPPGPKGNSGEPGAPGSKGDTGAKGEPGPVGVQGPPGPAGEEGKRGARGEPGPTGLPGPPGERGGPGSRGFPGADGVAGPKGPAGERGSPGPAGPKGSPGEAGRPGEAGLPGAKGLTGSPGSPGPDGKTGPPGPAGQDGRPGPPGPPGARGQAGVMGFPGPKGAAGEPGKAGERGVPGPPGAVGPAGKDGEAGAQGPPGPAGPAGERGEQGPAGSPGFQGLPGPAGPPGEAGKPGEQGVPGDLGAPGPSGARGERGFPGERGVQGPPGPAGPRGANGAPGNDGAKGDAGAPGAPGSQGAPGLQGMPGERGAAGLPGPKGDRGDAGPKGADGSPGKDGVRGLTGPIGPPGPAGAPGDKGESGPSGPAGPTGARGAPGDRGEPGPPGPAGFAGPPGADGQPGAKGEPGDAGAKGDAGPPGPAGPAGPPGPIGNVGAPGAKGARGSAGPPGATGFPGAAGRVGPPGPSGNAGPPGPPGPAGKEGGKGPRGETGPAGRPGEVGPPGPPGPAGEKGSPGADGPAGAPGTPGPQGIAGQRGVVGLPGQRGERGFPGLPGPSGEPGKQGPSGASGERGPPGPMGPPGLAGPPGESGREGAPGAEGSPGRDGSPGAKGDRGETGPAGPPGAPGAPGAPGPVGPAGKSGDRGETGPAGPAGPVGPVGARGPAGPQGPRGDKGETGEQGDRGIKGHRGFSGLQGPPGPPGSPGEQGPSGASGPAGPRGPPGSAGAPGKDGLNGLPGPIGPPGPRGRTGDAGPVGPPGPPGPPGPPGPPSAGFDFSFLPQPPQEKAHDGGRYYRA
T3 sequence (P08123 80-1119, chain 2 of 2): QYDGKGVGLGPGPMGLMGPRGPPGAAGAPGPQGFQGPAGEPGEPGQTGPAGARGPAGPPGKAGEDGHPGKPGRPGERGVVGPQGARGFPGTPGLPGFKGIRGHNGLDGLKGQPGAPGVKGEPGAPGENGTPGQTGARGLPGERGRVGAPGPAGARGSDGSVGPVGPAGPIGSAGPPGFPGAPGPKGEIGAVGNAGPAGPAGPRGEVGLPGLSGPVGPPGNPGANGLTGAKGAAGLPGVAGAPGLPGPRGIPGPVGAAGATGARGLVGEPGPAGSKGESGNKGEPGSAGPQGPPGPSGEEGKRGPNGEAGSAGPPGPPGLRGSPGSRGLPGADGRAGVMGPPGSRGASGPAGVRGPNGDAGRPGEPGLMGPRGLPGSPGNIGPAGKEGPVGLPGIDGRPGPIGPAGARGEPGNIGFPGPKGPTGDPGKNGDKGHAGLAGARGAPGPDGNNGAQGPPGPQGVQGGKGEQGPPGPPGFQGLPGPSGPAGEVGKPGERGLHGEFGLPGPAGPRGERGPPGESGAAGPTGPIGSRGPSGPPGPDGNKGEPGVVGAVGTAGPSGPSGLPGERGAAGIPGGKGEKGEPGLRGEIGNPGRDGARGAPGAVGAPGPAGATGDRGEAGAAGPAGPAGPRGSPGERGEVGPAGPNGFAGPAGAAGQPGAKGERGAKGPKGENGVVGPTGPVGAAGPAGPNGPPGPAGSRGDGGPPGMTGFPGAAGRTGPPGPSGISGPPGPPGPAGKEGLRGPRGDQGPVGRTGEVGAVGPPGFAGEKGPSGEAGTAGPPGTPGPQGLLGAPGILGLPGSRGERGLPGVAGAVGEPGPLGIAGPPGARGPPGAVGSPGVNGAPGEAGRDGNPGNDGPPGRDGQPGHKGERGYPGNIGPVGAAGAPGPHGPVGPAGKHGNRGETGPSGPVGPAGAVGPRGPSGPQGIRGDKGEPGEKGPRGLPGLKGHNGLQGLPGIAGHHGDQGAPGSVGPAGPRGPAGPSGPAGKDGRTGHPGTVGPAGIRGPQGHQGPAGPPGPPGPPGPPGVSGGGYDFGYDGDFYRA
T4 sequence (P20908 559-1570, chain 1 of 2): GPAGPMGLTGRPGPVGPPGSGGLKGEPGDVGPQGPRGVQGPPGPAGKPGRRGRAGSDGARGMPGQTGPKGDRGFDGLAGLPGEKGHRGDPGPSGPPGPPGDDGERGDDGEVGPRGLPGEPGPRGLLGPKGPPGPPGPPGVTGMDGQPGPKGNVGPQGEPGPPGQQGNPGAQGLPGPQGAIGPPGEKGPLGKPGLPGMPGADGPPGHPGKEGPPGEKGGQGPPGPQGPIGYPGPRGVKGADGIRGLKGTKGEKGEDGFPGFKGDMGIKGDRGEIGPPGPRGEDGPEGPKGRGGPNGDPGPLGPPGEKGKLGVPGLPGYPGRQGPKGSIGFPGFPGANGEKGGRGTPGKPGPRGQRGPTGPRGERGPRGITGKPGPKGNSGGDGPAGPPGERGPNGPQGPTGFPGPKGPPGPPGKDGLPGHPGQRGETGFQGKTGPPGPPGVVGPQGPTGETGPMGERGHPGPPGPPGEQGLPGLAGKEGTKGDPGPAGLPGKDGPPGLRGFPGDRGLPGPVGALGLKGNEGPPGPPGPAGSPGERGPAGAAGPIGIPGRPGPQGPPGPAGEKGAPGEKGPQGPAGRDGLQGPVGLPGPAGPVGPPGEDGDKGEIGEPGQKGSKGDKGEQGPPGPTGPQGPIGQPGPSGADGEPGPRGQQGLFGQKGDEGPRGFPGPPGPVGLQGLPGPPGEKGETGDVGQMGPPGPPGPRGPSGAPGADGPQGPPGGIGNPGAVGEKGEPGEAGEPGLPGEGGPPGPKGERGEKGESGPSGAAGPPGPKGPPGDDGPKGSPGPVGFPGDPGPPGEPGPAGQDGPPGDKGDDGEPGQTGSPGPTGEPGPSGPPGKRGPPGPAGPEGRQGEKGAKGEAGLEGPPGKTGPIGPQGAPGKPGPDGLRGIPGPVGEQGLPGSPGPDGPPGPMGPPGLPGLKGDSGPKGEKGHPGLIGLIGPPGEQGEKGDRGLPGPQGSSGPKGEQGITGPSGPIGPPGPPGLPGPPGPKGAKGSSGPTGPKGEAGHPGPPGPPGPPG
T4 sequence (P05997 216-1229, chain 2 of 2): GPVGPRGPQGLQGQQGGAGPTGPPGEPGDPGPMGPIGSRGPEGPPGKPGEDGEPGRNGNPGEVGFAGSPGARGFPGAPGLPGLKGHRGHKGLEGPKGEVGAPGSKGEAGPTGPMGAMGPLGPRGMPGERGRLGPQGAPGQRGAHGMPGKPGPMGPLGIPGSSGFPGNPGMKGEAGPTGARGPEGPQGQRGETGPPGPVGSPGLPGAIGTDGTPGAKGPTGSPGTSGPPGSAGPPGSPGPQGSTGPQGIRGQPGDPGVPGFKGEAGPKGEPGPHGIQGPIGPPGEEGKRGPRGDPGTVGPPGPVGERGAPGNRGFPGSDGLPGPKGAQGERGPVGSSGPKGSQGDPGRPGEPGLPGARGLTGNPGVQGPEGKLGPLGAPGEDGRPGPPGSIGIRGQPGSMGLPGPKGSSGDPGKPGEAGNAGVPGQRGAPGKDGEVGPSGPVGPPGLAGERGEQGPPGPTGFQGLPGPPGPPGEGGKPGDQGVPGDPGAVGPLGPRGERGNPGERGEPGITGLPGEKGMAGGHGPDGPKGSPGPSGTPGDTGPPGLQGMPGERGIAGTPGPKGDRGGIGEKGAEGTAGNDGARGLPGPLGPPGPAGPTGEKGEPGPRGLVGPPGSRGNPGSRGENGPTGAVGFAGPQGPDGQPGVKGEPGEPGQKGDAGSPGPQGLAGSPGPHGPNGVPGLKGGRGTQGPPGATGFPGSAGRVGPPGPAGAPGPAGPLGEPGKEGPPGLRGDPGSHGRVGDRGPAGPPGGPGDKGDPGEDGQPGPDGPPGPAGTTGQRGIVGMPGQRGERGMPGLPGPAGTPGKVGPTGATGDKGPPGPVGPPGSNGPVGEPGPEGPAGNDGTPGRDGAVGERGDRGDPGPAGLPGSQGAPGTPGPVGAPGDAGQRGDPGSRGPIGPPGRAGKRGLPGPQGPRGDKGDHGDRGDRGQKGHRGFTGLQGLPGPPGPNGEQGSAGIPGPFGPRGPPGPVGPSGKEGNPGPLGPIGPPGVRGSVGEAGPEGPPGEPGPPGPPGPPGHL
T2 sequence (P02751 1089-1540 limits assumed): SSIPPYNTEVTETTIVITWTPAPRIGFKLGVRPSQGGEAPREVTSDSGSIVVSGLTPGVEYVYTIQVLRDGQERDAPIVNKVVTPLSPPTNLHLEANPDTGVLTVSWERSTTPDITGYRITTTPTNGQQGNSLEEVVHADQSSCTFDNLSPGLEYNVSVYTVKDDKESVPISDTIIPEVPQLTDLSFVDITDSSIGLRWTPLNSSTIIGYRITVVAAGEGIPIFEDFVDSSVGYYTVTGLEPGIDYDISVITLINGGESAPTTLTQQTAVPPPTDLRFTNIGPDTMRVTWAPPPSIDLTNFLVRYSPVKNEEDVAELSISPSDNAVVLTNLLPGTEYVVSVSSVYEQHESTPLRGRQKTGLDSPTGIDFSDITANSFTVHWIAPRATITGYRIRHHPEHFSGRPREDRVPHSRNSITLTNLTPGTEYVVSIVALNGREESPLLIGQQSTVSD

Row | Binder | binding result [1] | binding result (human collagen type I [2]) | binding result (human collagen type V [3]) | binding result (human collagen type III [4]) | Kd (porcine collagen type II [5]) [nM] | Kd (rabbit collagen type II) [nM] | binding result (human collagen type V [6]) | binding result [7] | binding result (BSA [8]) | Kd (porcine collagen type II [9]) [nM] | binding result (human collagen type I [10]) | binding result (human collagen type III [11]) | binding result (human collagen type V [12]) | binding result [13] | binding result (BSA [14])
1 | CID 212001 (SEQ ID NO: 41), tetramer of SEQ ID NO: 2 (designed binder, not shown: C-terminal Strep-tag (detected with anti-StrepTag antibody)) IAAKFDEAQSAADSEILHLPNLTEQQRHYFRRWLSDDPSVSTHILTQAQHLNDDQAPKIAAKFDEAQSAADSEILHLPNLTEQQRHYFRRWLSDDPSVSTHILTQAQHLNDDQAPKIAAKFDEAQSAADSEILHLPNLTEQQRHYFRRWLSDDPSVSTHILTQAQHLNDDQAPKIAAKFDEAQSAADSEILHLPNLTEQQRHYFRRWLSDDPSVSTHILTQAQHLNDDQAPKSAWSHPQFEK | no binding (tested: 100 nM) | no binding (tested: 100 nM) | no binding (tested: 100 nM) | no binding (tested: 100 nM) | 0.27 | 0.21 |  |  |  |  |  |  |  |  | 
2 | 211190 (SEQ ID NO: 1) (designed binder, also called CID211190; not shown: C-terminal Strep-tag from the expression vector) NAASHDEAQLSALVEIWDLPNLTTRQKQKFIYSLQRDPSVSKEVLGEAQKLNDSQAPK |  |  |  |  |  |  | no binding | no binding | no binding |  |  |  |  |  | 
3 | 211519 (SEQ ID NO: 37), homodimer of SEQ ID NO: 11 (designed binder, also called CID 211519; not shown: C-terminal Strep-tag from the expression vector) IAAKFDEAQQAAFYEILHLPNLTEQQRNYFIQWLRDDPSVSPTVLGTAQQLNDSQAPKIAAKFDEAQQAAFYEILHLPNLTEQQRNYFIQWLRDDPSVSPTVLGTAQQLNDSQAPK |  |  |  |  |  |  |  |  |  | 700 | no binding | no binding | no binding | no binding | no binding
4 | CID 212000 (SEQ ID NO: 39), dimer of SEQ ID NO: 2 with linker between the monomers (designed binder, not shown: C-terminal Strep-tag (detected with anti-StrepTag antibody)) IAAKFDEAQSAADSEILHLPNLTEQQRHYFRRWLSDDPSVSTHILTQAQHLNDDQAPKGGGGSGGGGSGGGGSGGGGSIAAKFDEAQSAADSEILHLPNLTEQQRHYFRRWLSDDPSVSTHILTQAQHLNDDQAPKSAWSHPQFEK | no binding (tested: about 1100 nM) | no binding (tested: about 1100 nM) | no binding (tested: about 1100 nM) | no binding (tested: about 1100 nM) | 9.11 | 12 |  |  |  |  |  |  |  |  | 
5 | CID 211999 (SEQ ID NO: 38), dimer of SEQ ID NO: 2 (directly joint monomers) (designed binder, not shown: C-terminal Strep-tag (detected with anti-StrepTag antibody)) IAAKFDEAQSAADSEILHLPNLTEQQRHYFRRWLSDDPSVSTHILTQAQHLNDDQAPKIAAKFDEAQSAADSEILHLPNLTEQQRHYFRRWLSDDPSVSTHILTQAQHLNDDQAPKSAWSHPQFEK | no binding (tested: about 1100 nM) | no binding (tested: about 1100 nM) | no binding (tested: about 1100 nM) | no binding (tested: about 1100 nM) | 14.3 | 21.1 |  |  |  |  |  |  |  |  | 
